Experimental findings from patent US20100189713A1 (Biogen, published 2010) are described below.

Assay [1] concerns the target T1, plexin-A2A396E expressed in COS7 cells (mouse, UniProt P70207 35-1894).
T1 construct: whole, on cells; Same point mutation as in NMF454 mice, made by site-directed mutagenesis; also called mutated plexin-A2A396E; NMF454 mutation
Kind of assay: AP-fusion binding assay on transfected COS7 cells. As for the experimental part:
This plexin-A2A396E cDNA was then expressed in COS7 cells, and its ability to bind Sema6A-AP was tested using the same method shown in Example 8. See Suto et al. Neuron 53: 5354 (2007).

Assay [2] addresses T2, full-length mouse plexin-A2 protein, N-terminal myc-tag, stably expressed on L cells (mouse, UniProt P70207 35-1894).
T2 construct: whole, on cells; also called plexin-A2 expressing L cells
Kind of assay: AP-fusion binding to L cells stably expressing plexin-A2, colorimetric AP activity of cell lysates. As for the experimental part:
In order to show the binding of Sema6A to Plexin-A2, L-cells that stably express the full-length mouse plexin-A2 proteins were incubated with 250 μl of HBSS with 0.5 mg/ml BSA, 0.1% NaN₃, and 20 mM HEPES, pH 7.0 (HBHA solution) containing 1% FBS and the AP-Sema6Aect-Fc recombinant proteins (the culture supernatant) for 1 h on ice as described in Flanagan and Leder, Cell 63: 185-194 (1990). After removal of the HBHA solution, cells were treated with 250 μl of 10 mM Tris-HCl, pH 8.0, supplemented with 0.1% Triton X-100 to dissolve the recombinant proteins bound to the cell surface. The cell lysates were subjected to colorimetric analysis to measure AP activity as described in Flanagan and Leder, Cell 63: 185-194 (1990) and Flanagan et al., Methods Enzymol 327: 17-35 (2000).
It was shown that the Fc-dimerized recombinant AP-tagged ectodomain of Sema6A bound with a high affinity to plexin-A2 expressing L cells. […] 25: 3628-3637 (2005).

T1 sequence (P70207 35-1894 A396E): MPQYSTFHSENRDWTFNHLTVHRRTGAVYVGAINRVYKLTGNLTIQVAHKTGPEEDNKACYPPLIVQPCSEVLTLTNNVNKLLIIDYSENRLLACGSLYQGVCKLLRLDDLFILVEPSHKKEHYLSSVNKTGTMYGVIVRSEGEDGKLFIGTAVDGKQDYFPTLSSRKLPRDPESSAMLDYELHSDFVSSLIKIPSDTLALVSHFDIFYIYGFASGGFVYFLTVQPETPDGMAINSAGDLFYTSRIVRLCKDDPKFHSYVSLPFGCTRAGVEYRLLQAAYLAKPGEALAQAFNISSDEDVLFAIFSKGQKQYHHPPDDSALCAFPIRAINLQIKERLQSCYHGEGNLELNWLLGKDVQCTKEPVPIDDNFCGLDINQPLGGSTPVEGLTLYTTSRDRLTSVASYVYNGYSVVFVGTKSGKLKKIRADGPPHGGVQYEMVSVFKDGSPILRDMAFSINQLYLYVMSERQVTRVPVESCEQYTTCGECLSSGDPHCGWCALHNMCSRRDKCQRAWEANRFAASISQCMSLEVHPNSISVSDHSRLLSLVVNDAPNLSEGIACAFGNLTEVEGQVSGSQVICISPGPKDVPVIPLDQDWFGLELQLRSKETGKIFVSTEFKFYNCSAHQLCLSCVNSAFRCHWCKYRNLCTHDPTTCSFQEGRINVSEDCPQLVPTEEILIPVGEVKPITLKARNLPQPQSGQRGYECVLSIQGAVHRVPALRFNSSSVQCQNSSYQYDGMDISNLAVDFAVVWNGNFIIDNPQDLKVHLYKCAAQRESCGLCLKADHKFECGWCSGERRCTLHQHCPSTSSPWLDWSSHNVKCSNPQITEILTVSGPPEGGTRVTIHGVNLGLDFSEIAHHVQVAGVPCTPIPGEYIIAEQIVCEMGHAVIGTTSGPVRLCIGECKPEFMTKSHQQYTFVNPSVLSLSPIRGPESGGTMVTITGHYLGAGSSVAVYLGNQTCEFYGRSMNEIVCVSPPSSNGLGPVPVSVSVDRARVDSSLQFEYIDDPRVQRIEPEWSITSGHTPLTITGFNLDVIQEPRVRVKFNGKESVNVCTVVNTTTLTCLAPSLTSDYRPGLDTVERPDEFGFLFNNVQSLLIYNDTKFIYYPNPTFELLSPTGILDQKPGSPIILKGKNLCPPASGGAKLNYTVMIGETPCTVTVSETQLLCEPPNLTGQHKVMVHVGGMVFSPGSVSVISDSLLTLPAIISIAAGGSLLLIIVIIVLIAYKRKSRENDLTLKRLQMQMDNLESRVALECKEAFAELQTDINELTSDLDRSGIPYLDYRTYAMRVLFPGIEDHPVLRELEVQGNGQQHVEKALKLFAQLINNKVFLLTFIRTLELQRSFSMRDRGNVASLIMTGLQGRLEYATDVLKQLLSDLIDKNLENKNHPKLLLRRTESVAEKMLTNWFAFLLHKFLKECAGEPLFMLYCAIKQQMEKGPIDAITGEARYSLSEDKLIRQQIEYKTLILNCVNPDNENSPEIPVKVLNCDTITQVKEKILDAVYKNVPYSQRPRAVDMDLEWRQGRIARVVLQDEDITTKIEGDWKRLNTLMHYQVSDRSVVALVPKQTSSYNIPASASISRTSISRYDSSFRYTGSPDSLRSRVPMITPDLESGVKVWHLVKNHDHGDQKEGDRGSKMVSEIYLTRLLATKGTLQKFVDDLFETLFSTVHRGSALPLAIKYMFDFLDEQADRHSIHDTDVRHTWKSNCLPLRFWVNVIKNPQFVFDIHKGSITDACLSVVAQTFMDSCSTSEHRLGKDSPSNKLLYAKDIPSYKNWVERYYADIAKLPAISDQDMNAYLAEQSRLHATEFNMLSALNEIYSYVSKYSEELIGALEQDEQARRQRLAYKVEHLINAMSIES
T2 sequence (P70207 other isoform, or with tags, fused parts or gaps): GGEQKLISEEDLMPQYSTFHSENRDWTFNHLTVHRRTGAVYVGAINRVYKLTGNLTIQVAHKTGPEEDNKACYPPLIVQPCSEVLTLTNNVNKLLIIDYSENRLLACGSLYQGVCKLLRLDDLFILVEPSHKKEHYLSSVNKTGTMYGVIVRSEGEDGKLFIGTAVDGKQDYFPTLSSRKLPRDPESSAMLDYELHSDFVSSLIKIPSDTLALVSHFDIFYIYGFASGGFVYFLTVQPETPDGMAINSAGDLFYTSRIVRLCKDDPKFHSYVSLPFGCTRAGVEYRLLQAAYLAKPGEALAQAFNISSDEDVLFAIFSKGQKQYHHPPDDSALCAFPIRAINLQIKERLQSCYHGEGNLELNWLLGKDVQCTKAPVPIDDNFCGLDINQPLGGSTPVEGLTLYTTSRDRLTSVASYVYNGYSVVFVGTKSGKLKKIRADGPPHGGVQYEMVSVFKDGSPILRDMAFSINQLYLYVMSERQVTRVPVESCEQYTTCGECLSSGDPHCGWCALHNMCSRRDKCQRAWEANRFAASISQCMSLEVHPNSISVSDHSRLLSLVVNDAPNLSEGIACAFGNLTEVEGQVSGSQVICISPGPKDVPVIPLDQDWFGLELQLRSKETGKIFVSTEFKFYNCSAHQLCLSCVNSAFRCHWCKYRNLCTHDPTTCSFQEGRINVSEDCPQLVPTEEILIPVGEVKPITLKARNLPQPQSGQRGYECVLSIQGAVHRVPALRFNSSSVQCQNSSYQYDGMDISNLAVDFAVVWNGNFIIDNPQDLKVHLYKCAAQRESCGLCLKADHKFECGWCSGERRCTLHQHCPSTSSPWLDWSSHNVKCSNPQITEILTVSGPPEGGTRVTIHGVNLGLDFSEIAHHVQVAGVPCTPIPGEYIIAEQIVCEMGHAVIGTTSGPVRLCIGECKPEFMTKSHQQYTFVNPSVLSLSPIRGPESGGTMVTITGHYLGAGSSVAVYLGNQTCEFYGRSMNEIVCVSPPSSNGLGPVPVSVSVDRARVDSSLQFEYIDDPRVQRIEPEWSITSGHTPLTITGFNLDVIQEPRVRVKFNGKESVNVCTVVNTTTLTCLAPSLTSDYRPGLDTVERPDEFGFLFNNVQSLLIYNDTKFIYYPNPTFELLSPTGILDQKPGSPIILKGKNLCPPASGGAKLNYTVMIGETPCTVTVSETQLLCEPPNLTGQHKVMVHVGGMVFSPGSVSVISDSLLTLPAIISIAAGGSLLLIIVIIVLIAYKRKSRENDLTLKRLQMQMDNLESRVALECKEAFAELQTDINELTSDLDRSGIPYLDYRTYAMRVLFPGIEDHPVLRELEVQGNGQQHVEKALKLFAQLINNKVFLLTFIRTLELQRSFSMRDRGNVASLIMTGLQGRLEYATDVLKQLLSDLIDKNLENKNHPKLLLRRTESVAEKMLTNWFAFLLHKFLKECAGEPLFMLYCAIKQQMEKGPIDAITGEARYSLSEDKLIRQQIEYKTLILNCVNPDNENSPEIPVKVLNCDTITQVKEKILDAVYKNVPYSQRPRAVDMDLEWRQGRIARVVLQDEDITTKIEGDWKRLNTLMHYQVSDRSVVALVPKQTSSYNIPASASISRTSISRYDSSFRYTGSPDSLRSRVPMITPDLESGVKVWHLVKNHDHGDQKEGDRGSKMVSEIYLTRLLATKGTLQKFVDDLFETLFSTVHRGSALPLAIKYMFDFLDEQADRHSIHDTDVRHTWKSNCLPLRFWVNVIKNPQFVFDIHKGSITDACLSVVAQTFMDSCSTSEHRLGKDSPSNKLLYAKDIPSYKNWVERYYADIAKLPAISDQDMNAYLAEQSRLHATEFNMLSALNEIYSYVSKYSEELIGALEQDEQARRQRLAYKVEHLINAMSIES

B1: Sema6A-AP (ligand, UniProt O35464 19-649, looked up)
chain: GFPEDSEPISISHGNYTKQYPVFVGHKPGRNTTQRHRLDIQMIMIMNRTLYVAARDHIYTVDIDTSHTEEIYCSKKLTWKSRQADVDTCRMKGKHKDECHNFIKVLLKKNDDTLFVCGTNAFNPSCRNYRVDTLETFGDEFSGMARCPYDAKHANIALFADGKLYSATVTDFLAIDAVIYRSLGDSPTLRTVKHDSKWLKEPYFVQAVDYGDYIYFFFREIAVEYNTMGKVVFPRVAQVCKNDMGGSQRVLEKQWTSFLKARLNCSVPGDSHFYFNILQAVTDVIRINGRDVVLATFSTPYNSIPGSAVCAYDMLDIANVFTGRFKEQKSPDSTWTPVPDERVPKPRPGCCAGSSSLEKYATSNEFPDDTLNFIKTHPLMDEAVPSIINRPWFLRTMVRYRLTKIAVDNAAGPYQNHTVVFLGSEKGIILKFLARIGSSGFLNGSLFLEEMNVYNPEKCSYDGVEDKRIMGMQLDRASGSLYVAFSTCVIKVPLGRCERHGKCKKTCIASRDPYCGWVRESGSCAHLSPLSRLTFEQDIERGNTDGLGDCHNSFVALNGHASSLYPSTTTSDSASRDGYESRGGMLDWNDLLEAPGSTDPLGAVSSHNHQDKKGVIRESYLKSNDQLVPVT
notes: Printed only as 'Sema6A-AP'; Order of the pieces follows the printed label only; not shown: alkaline phosphatase (AP) tag
On to B1, for which, in assay [1], the binding result was “no binding”.

B2: recombinant Fc-dimerized AP-tagged Sema6A ectodomain (AP-Sema6Aect-Fc) (Fc fusion, mouse, UniProt O35464 18-648, looked up)
chain: AGFPEDSEPISISHGNYTKQYPVFVGHKPGRNTTQRHRLDIQMIMIMNRTLYVAARDHIYTVDIDTSHTEEIYCSKKLTWKSRQADVDTCRMKGKHKDECHNFIKVLLKKNDDTLFVCGTNAFNPSCRNYRVDTLETFGDEFSGMARCPYDAKHANIALFADGKLYSATVTDFLAIDAVIYRSLGDSPTLRTVKHDSKWLKEPYFVQAVDYGDYIYFFFREIAVEYNTMGKVVFPRVAQVCKNDMGGSQRVLEKQWTSFLKARLNCSVPGDSHFYFNILQAVTDVIRINGRDVVLATFSTPYNSIPGSAVCAYDMLDIANVFTGRFKEQKSPDSTWTPVPDERVPKPRPGCCAGSSSLEKYATSNEFPDDTLNFIKTHPLMDEAVPSIINRPWFLRTMVRYRLTKIAVDNAAGPYQNHTVVFLGSEKGIILKFLARIGSSGFLNGSLFLEEMNVYNPEKCSYDGVEDKRIMGMQLDRASGSLYVAFSTCVIKVPLGRCERHGKCKKTCIASRDPYCGWVRESGSCAHLSPLSRLTFEQDIERGNTDGLGDCHNSFVALNGHASSLYPSTTTSDSASRDGYESRGGMLDWNDLLEAPGSTDPLGAVSSHNHQDKKGVIRESYLKSNDQLVPV
notes: range 18-648; Used as culture supernatant of transfected HEK293T cells; also called Fc-dimerized recombinant AP-tagged ectodomain of Sema6A; not shown: alkaline phosphatase (AP) tag from the Aptag-4 vector; Fc from the pEF-Fc expression vector
As usually defined, the Kd is the equilibrium constant for the complex coming apart. A high value points to a looser complex. Turning to B2, the Kd in assay [2] is 3.21 nM.
